Results on 94 variants are retold here after the supplement of paper PMC10567573.

B1: DVL3 (parent)
chain: FCADNPSELPPPMERTGGIGDSRP
B2: KIAA1161 (parent)
chain: FMPAMQFSIPPWRYDAEVVAIAQK
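Note: lentivirally expressed fusions sorted by FACS into six bins by GFP to DsRed ratio, PSI derived from sequencing read proportions per bin multiplied by bin number.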

One data set covers variants of B1. Kind of data set: protein stability index of a GFP-peptide fusion (GPS, HEK-293T) (PSI 1-6); higher = more stable. The following applies: c terminus: a fixed tail appended.
For the variant FCAFNPSELPPPMERTGGIGDSRP [D4F], the protein stability index amounted to 3.08. Take FCANNPSELPPPMERTGGIGDSRP [D4N]: the protein stability index came out at 3.96.

Turning to FCAINPSELPPPMERTGGIGDSRP [D4I], the protein stability index came out at 3.71. Same read-out and setting: the result for FCASNPSELPPPMERTGGIGDSRP [D4S] reads 4.25; that for FCAMNPSELPPPMERTGGIGDSRP [D4M], 3.26; that for FCAKNPSELPPPMERTGGIGDSRP [D4K], 2.85. On the same count and under the same terms, in the case of FCAANPSELPPPMERTGGIGDSRP [D4A] it was 4.19; in that of FCAYNPSELPPPMERTGGIGDSRP [D4Y], 3.98. On the same count and under the same terms, the result for FCAENPSELPPPMERTGGIGDSRP [D4E] reads 5; that for FCAGNPSELPPPMERTGGIGDSRP [D4G], 4.37. Consider FCATNPSELPPPMERTGGIGDSRP [D4T], for which the protein stability index amounted to 4.29.

For FCAHNPSELPPPMERTGGIGDSRP [D4H], the protein stability index was determined as 4.27. Consider FCARNPSELPPPMERTGGIGDSRP [D4R], for which the protein stability index is 4.36. The same measure, in the same setting: the result for FCAVNPSELPPPMERTGGIGDSRP [D4V] reads 3.79. The same measure, in the same setting: the result for FCAWNPSELPPPMERTGGIGDSRP [D4W] reads 2.06. With FCAQNPSELPPPMERTGGIGDSRP [D4Q], the protein stability index is 3.36. Same read-out and setting: the result for FCADAPSELPPPMERTGGIGDSRP [N5A] reads 4.31. Same read-out and setting: the result for FCADEPSELPPPMERTGGIGDSRP [N5E] reads 4.8; that for FCADKPSELPPPMERTGGIGDSRP [N5K], 4.29. Same read-out and setting: the result for FCADMPSELPPPMERTGGIGDSRP [N5M] reads 4.57. As for FCADSPSELPPPMERTGGIGDSRP [N5S], the protein stability index came to 4.78. Regarding FCADQPSELPPPMERTGGIGDSRP [N5Q], the protein stability index came to 4.45.

For the variant FCADFPSELPPPMERTGGIGDSRP [N5F], the protein stability index turned out to be 2.65. Still for that read-out and setting: in the case of FCADHPSELPPPMERTGGIGDSRP [N5H] it was 3.81; in that of FCADWPSELPPPMERTGGIGDSRP [N5W], 3.23.

With FCADIPSELPPPMERTGGIGDSRP [N5I], the protein stability index was found to be 4.21.

With FCADYPSELPPPMERTGGIGDSRP [N5Y], the protein stability index came to 3.62. Same read-out and setting: the result for FCADTPSELPPPMERTGGIGDSRP [N5T] reads 4.42; that for FCADVPSELPPPMERTGGIGDSRP [N5V], 4.58; that for FCADDPSELPPPMERTGGIGDSRP [N5D], 4.92. With FCADGPSELPPPMERTGGIGDSRP [N5G], the protein stability index turned out to be 4.46. The same measure, in the same setting: in the case of FCADLPSELPPPMERTGGIGDSRP [N5L] it was 3.32.

The variants in the next data set derive from B2. The description is as above. The following applies: c terminus: a fixed tail appended.
With FMPAMQFSIPPWRYDAEVVASAQK [I21S], the protein stability index turned out to be 2.38. Same read-out and setting: the result for FMPAMQFSIPPWRYDAEVVALAQK [I21L] reads 1.93; that for FMPAMQFSIPPWRYDAEVVADAQK [I21D], 2.59; that for FMPAMQFSIPPWRYDAEVVATAQK [I21T], 2.17. Still for that read-out and setting: the result for FMPAMQFSIPPWRYDAEVVANAQK [I21N] reads 2.11. Consider FMPAMQFSIPPWRYDAEVVAPAQK [I21P], for which the protein stability index came to 2.16. Same read-out and setting: the result for FMPAMQFSIPPWRYDAEVVAHAQK [I21H] reads 2.32; that for FMPAMQFSIPPWRYDAEVVAKAQK [I21K], 2.07; that for FMPAMQFSIPPWRYDAEVVAEAQK [I21E], 2.6. The same measure, in the same setting: the result for FMPAMQFSIPPWRYDAEVVAYAQK [I21Y] reads 1.64; that for FMPAMQFSIPPWRYDAEVVAGAQK [I21G], 2.66; that for FMPAMQFSIPPWRYDAEVVAQAQK [I21Q], 2.81.

On to FMPAMQFSIPPWRYDAEVVAVAQK [I21V], for which the protein stability index came to 1.68.

FMPAMQFSIPPWRYDAEVVARAQK [I21R]: the protein stability index is 2.31. On the same count and under the same terms, in the case of FMPAMQFSIPPWRYDAEVVAFAQK [I21F] it was 2.52; in that of FMPAMQFSIPPWRYDAEVVQIAQK [A20Q], 2.41; in that of FMPAMQFSIPPWRYDAEVVSIAQK [A20S], 1.59.

As for FMPAMQFSIPPWRYDAEVVVIAQK [A20V], the protein stability index was determined as 1.91. On the same count and under the same terms, the result for FMPAMQFSIPPWRYDAEVVWIAQK [A20W] reads 1.04; that for FMPAMQFSIPPWRYDAEVVRIAQK [A20R], 1.98. The same measure, in the same setting: the result for FMPAMQFSIPPWRYDAEVVTIAQK [A20T] reads 1.92. Same read-out and setting: the result for FMPAMQFSIPPWRYDAEVVAISQK [A22S] reads 1.94; that for FMPAMQFSIPPWRYDAEVVAIHQK [A22H], 1.9. With FMPAMQFSIPPWRYDAEVVAIFQK [A22F], the protein stability index came to 2.18. FMPAMQFSIPPWRYDAEVVAILQK [A22L]: the protein stability index was determined as 2.45. On the same count and under the same terms, in the case of FMPAMQFSIPPWRYDAEVVAITQK [A22T] it was 2.51; in that of FMPAMQFSIPPWRYDAEVVAIYQK [A22Y], 1.23.

For FMPAMQFSIPPWRYDAEVVAIQQK [A22Q], the protein stability index worked out at 2.56. On the same count and under the same terms, the result for FMPAMQFSIPPWRYDAEVVAIKQK [A22K] reads 1.88.

Turning to FMPAMQFSIPPWRYDAEVVAIPQK [A22P], the protein stability index amounted to 2.58. On the same count and under the same terms, in the case of FMPAMQFSIPPWRYDAEVVAIDQK [A22D] it was 1.96; in that of FMPAMQFSIPPWRYDAEVVAIVQK [A22V], 2.01. Still for that read-out and setting: in the case of FMPAMQFSIPPWRYDAEVVAINQK [A22N] it was 1.6; in that of FMPAMQFSIPPWRYDAEVVAIAQL [K24L], 2.62. Same read-out and setting: in the case of FMPAMQFSIPPWRYDAEVVAIAQD [K24D] it was 1.82; in that of FMPAMQFSIPPWRYDAEVVAIAQS [K24S], 1.68; in that of FMPAMQFSIPPWRYDAEVVAIAQV [K24V], 2.36.

Turning to FMPAMQFSIPPWRYDAEVVAIAQA [K24A], the protein stability index was 2.31.

For FMPAMQFSIPPWRYDAEVVAIAQQ [K24Q], the protein stability index amounted to 1.86. On the same count and under the same terms, in the case of FMPAMQFSIPPWRYDAEVVAIAQC [K24C] it was 1.61; in that of FMPAMQFSIPPWRYDAEVVAIAQF [K24F], 2.

With FMPAMQFSIPPWRYDAEVVAIAQG [K24G], the protein stability index came to 1.33.

On to FMPAMQFSIPPWRYDAEVVAIAQM [K24M], for which the protein stability index was 1.33. The same measure, in the same setting: in the case of FMPAMQFSIPPWRYDAEVVAIAQN [K24N] it was 2.58; in that of FMPAMQFSIPPWRYDAEVVAIAQE [K24E], 1.82; in that of FMPAMQFSIPPWRYDAEVVAIAQH [K24H], 2.54. As for FMPAMQFSIPPWRYDAEVVAIAQT [K24T], the protein stability index came to 1.63. Consider FMPAMQFSIPPWRYDAEVVAIAQR [K24R], for which the protein stability index was determined as 1.67. On the same count and under the same terms, the result for FMPAMQFSIPPWRYDAEVVAIAQP [K24P] reads 2.01; that for FMPAMQFSIPPWRYDAEVVAIAFK [Q23F], 1.35. For FMPAMQFSIPPWRYDAEVVAIANK [Q23N], the protein stability index is 1.85. Same read-out and setting: the result for FMPAMQFSIPPWRYDAEVVAIASK [Q23S] reads 1.52; that for FMPAMQFSIPPWRYDAEVVAIAAK [Q23A], 2.23. In the case of FMPAMQFSIPPWRYDAEVVAIADK [Q23D], the protein stability index was found to be 2.69. The same measure, in the same setting: in the case of FMPAMQFSIPPWRYDAEVVAIAWK [Q23W] it was 2.74.

Regarding FMPAMQFSIPPWRYDAEVVAIAHK [Q23H], the protein stability index is 1.66.

With FMPAMQFSIPPWRYDAEVVAIAPK [Q23P], the protein stability index was determined as 1.99. Same read-out and setting: the result for FMPAMQFSIPPWRYDAEVVAIAMK [Q23M] reads 3.29; that for FMPAMQFSIPPWRYDAEVVAIATK [Q23T], 1.92; that for FMPAMQFSIPPWRYDAEVVAIAGK [Q23G], 1.78. The same measure, in the same setting: the result for FMPAMQFSIPPWRYDAEVVAIAKK [Q23K] reads 2.2. Same read-out and setting: the result for FMPAMQFSIPPWRYDAEVVAIAYK [Q23Y] reads 1.3.
